Measurements reported in article PMC7959541.

Legend:
[1] = molecular target: Cy5 labeled PDZ14 (engineered yeast SmF variant with a PDZ domain at its C-terminus, 14-mer) (Saccharomyces cerevisiae); assay: dual-color fluorescence cross-correlation spectroscopy
[2] = molecular target: Cy5 labeled PDZ14 (engineered yeast SmF variant with a PDZ domain at its C-terminus, 14-mer) (Saccharomyces cerevisiae); assay: fluorescence burst analysis of two-colour confocal trajectories

Alexa 488 labeled KKETPV14 (engineered yeast SmF variant with the short peptide KKETPV at its C-terminus, 14-mer)
stoichiometry N (KKETPV14:PDZ14) [1]: 1
stoichiometry N (KKETPV14:PDZ14) [2]: 0.99
